Measured values as given in paper PMC11586414.

Biological target: AMPylated HEPN^Lpg (Legionella pneumophila Philadelphia 1) (UniProt Q5ZRG2)
Test: crystal structure

With “AMPylated HEPN^Lpg (from UniProt Q5ZRG2 1-139) (natural protein)” the stoichiometry N was 4.
